The text below walks through data of patent publication US20240084041A1.

The target of the test is MET on NCI-H596 cells (MET exon14 skip mutation) (human) (UniProt P08581). In words: cell-based or functional assay.

“hepatocyte growth factor (HGF) (from UniProt P14210 32-728) (ligand)” registered a Relative Cell Growth (n = 3), NCI-H596 in soft agar, 100 ng/mL, two weeks (relative to control (no treatment)) of 7.88.
